Reference: the DeepSol protein solubility set

Assay: soluble on expression in E. coli; label from the status in PepcDB or PDB records

Soluble on expression in E. coli, not soluble:
MGSDKIHHHHHHMFVGFDYGSANCAVGIMQGDEVSLLPLSTDSAYLPSTLYAMDRELIAEAVYRALPAELKADYAKKRAAQLSRARMVRHELDLDAESPAVFVGEQAVAAYLEMPEEGFYVRSPKSFLGATGLRPEQVALFEDIVTLMMQHIKVRAEAVLVQKGMASKDEARITHAVIGRPVNFQGIGGEESNRQAEAILTLAAKRAGFVDVAFLFEPLAAGMDYEAGLKADQTVLVVDVGGGTTDCSVVKMGPSHKASFDRSRDCLGHSGQRIGGNDLDIALAMNAFMPHFGLGSLMSNGKPMPSNPFWNAVAVNDISAQREFATLSTRKLIDELIKEAEQPNLLKRLLKVQQQQLSYQIVRLAERAKIALSDAHTTESSLEFIEAMLSAEVNRDCFENAIEPSLGKIEALMHQALTQAAKSLTGNGLAPEELSVEAGTAECQPDVIYVTGGTARSPAIYAKITSLYPDTPVVVGDHFGSVTAGLTRWAQKHFAQ, MGSDKIHHHHHHMFYQLYELNHAALQPARLYADAVRMFYSNPLNPIAHTHWGRSVAAGAELFERTTRRYGKPAFGLDKTVVDWKSVEVTEKTVWSKPFCNLVRFERAMPAGRKPDPKLLIVAPMSGHYATLLRGTVEAMLPYADVHITDWVDARMVPLVDGSFDLDDYIDYIIEMFHALGPDTHVMAVCQPSVPVLAAVALMEAKGDPFVPSTMTLMGGPIDTRRNPTAVNLLAEEKGIDWFRDNVVMRAPWPVPGFGREVYPGFLQLSGFMSMNLDRHIIAHKDFFMHLVKNDGDNAEKHRDFYDEYMAVMDLTAEFYLQTVDTVFVRHALPKGEMKHRGAAIDTSAIRNVALFTVEGENDDISGLGQTKAAQDLCINIPADKKAHYMQPAVGHYGVFNGSRFRSEIVPRIVDFITSYGRQNRVAVKPKLVRTAKR, MGSDKIHHHHHHMGEELPVSQPVDQRPLEHQDHCQAAEPAAMDPPAGEDFYEKDFITYLSDENEQEISRAFIVANPGMVKFHFVDKVYEQLALKDKQVDTAIYSEVLPDPPLSQAIKIAKQMKKFAPDTIIAIGGGSALDVSKIARYIYEYSLDQEDGWLDIYDNVSELIKELQQKFVDIRKRIVKFKHETRTSLVMTRSLKAPS, MGSDKIHHHHHHMGEQQLDCALDLMRRLPPQHCDKNLTDLIDLCPHLVDDLLSTIDQPLKIAADRETGKQYLLCDYNRDGDSYRSPWSNTYDPPLEDGQLPSEKRRKMEIEANAAFESYRDLYFEGGVSSVYFWDLDNGGFAGIVLIKKEGDGAKNITGCWDSIHVIEITERARQAHYKLTSTIMLWLQTNKSSSGVMNLGGSLTRQHEMDAPINDQNTHLANMGRMIEDQESKMRLTINEIYFGKTKKVMSDLRSTEKQSELEKQDEIVRELNNAMANRGN, MGSDKIHHHHHHMGKPHRIALALQGGGVHGAFTWGVLDALLEEAATGKIEFVGVSGASSGALTATAMAYGYHEGAAQPGPASARSRRMAEAARTKIRELWETVARAAFWGGNPFVAAIGLAQDWNIDDTPAARWADVAGGNTPAAESGLGTYLTAVLRDVLPQIPAIFALPQEGTPTLIVAATDIGECRRQLFIDGAVSPDAVRASTNLPTSLHTVSIGDHHYWDGGYMGNPPLTPLVERLRETNAEDLVLVTLNPLHRDGPPPKGGRQVLDRLNEVAFNASLVHEVNAIETINRLVDADMIKEPPPGQHPYRRVNLHRIHADEEMVKLGVYSKDAPAWDFLVYLRDLGRKAFTESWETIRPALGKHSSWDTNSVCDQILARKAITTREK, MGSDKIHHHHHHMGKQQIWKNWWENHTCTPEHYYQPEQIDEVVEIIKSANLEQKQIKVIGSGRSWSDIPCTDGYMISLDKFNQVLDIDIEQKTVIVKSGIRIYQLVDILAKHGLALSSLGSICEQSIAGAISTGTHGNSLHQGGLASSILELELVNGIGEVIKCSKSENPDLFSAALIGLGAIGIITQVKIQCCNQFWLTETLQCWNIKDVLENLDTLKKNDYCRFWYTTTNKDAIVQTFSDSQILEKTGFIHFIKRIITQIFWFLWISWHDNPAEHDSQSFTRKDESQHILCYPRFFLKLYKLSFRMTKYCQNVLISEYGIPEEMASIAMNKILSLVDRGIIKGHLRFEVRFGAAEDVWLSTAYQRPTCYIQVLFEKKNFTSTQDQNDAFIQVENIIKNLAGRPHWAKDHLYTNDDLRSTYPRWQEFLQIRQQTDPQQCFTNSYLNKIFDDVRRTA, MGSDKIHHHHHHMGLFNIFDVAGSGMSAQSLRLNTTASNIANADSVSSSIDKTYRSRHPIFEAEMAKAQSQQQASQGVAVKGIVESDKPLLKEYSPDHPMADGDGFIYKPNVNVMEEMADMISASRSYQMNVQVAEAAKSMLQQTLGMGK, MGSDKIHHHHHHMGLLTNLKDSISRAASTLFSEEDPKRIGIYGPPNAGKTTLANRIARDWTGDAVGPESHVPHETRRARRKENVEIERDGKKVTIDIVDTPGVTTKVDYTEFLEHDMEKDDAVRRSREATEGVAEAMHWLREDVDGVIYVLDSATDPFTQVNTMLIGIIESQDLPVLILANKIDLEESSVQRIRNAYPQHETIPLSALEGDNMDEVYDKIAEYFG, MGSDKIHHHHHHMGLYDLLDAEGKDDQKGKSPGVAVGVVADNQDPEGMGRVKVRFPWKDDADESTWARVVTPMAGKGRGLWFLPEVGDEVLVAFDHGDVQHPYVLGSLWNGTDTPPGDNGDGNNNIRKITSRSGHELVFDDTSGAEKVVIRTKAGHAITLDDAGGGEKIEIKDKSGSNKLVIDSAQNSIGIESSMKLTIKGQMVEIQSDANMTLKAGAVMTIQGSMVKIN, MGSDKIHHHHHHMGMSSDLIKPRRPSTSGCAIHCHDCSMEALCIPFTLNNDELDKLDSIIERKKPIQKGDLIFKSGDVLKSLYAIRSGTIKSYTITEQGDEQITGFHLAGDVIGFDGIHAQRHQSFAQALETSMVCEIPYDTLDDLSGSMPKLRQQIMRLMSNEIMSDQEMILLLSKKNAEERLAAFINNLANRFGNRGFSPHEFRLTMTRGDIGNYLGLTVETISRLLGRFQKSGLIEVKGKYISIIDHSALSTLAGNARIAT, MGSDKIHHHHHHMGNATRIYEKHVDIKKDTVQDFWNKRAKKHIPENPYISVKCNDQNPDYAKNLDKYEKEIIIPKLNITRNSNILDIGCGVGRLADDIVPICNYYLGTDFAEDLISIAKKRFSDNDCDFQVCDFINTLYDTKVKSKMPFDTILLAGVTMYINDDELKIALKNLLGILDKKATIYISIPIGINKRLTLKEFYSKELNSEYNVIYRTIEEYEEILKPLLDEGFEIVESKSFLTDINQYSDTERHYFILKR, MGSDKIHHHHHHMGNFHTMLDALLEDQEEAVLATIVQVEGSAYRKAGASMLFKKKGRRIGLLSGGCVEEDVFQRISALGDQLTSTLIPYDMRSEDDLSWGMGAGCNGIIHVHAERITQEKRRHYEKVRDCLHSGKAVTSVIKIESSHYLFLTENGHFGNWPDAPLQDIQRTVSTLHLPHFDQTTNMFIQRIEPKPRLILFGAGPDNVPLANLAADTGFSVIVTDWRPAYCTSSLFPYAYYLITAFPEQMLSEFQFFPHDAAVVATHHYQHDQTIINFLFSQNLHYIGLLGSANRTKRLLSGKHPPSHFYSPVGLKIGAEGPEEIAVSVVAEIIQTRKRVAVV, MGSDKIHHHHHHMGNKPSGRHYFAEGITNRGYISLLPNMMSEWERTYVLMGGPGTGKSTTIKMIGLDLLDRGYEVDFLRSARDPDSMAGVLIRRFNWAILDHYEIAPLHWRAPGVIEHFVDFSKYCNQGKLEQQRLRVLELGEKIKRGQQRIGEILAEEFGGRIRERFYAKADEGRPWLPKLYASDLFKEAKGPWSKAQDALKKIQKSAVQSFFLHGINPEGWLNLAPYFLTDYDQIRFDGEEAHEAMEWVLQEAEQLGQVIDIVLHPLYPDEILGIVFPERNLAIWQGDPEHLEDQGLGCPFSNDLKKALLDTQRLRDKLKAIYTKTVDFDQVDSMKTDLLSSILRDMDKKVHTID
